Where two headings read alike, the source gives them in different places.
Key:
[1] = biological target: T1, cynomolgus monkey 4-1BB (SPR analyte) (cynomolgus monkey, UniProt A9YYE7 24-186); assay: SPR, KD on cy4-1BB against KD on h4-1BB
T1 construct: also called cy4-1BB
T1 sequence: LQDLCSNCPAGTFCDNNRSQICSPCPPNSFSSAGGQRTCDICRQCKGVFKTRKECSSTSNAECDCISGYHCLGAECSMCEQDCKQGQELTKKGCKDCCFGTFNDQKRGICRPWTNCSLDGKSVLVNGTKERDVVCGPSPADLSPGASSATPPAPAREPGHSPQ

[2] = biological target: T2, human 4-1BB (SPR analyte) (human, UniProt Q07011 24-186); assay: SPR (Biacore 8K), binder captured on anti-Fc chip, target as analyte, 1:1 model
T2 construct: also called h4-1BB

human PD-1 (SPR analyte) [3] = biological target: T3, human PD-1 (SPR analyte) (human, UniProt Q15116 25-167, limits assumed); assay: as above
T3 construct: Soluble analyte in SPR; also called hPD-1
T3 sequence (Q15116 25-167 limits assumed): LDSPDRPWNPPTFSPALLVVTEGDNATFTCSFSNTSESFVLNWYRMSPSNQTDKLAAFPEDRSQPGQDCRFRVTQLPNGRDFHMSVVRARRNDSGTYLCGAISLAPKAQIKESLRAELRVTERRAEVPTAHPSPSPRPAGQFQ

[4] = biological target: T4, human PD-1 expressed on cells (300.19 pre-B cells, PD-1 NFAT-luc2 Jurkat cells, primary T-cells) (human, UniProt Q15116 25-288); assay: flow cytometry on transfected 300.19 pre-B cells
T4 construct: GenBank NP 005009.2 printed; also called hPD-1; Pre-B hPD-1
T4 sequence (Q15116 25-288 limits assumed): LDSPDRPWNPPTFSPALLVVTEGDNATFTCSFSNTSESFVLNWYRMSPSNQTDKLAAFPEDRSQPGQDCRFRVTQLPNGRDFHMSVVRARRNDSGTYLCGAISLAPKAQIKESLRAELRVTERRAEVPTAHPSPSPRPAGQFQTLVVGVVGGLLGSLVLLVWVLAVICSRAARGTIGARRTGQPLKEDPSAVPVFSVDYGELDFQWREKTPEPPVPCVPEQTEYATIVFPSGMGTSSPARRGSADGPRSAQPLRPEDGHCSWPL

[5] = biological target: T5, cynomolgus monkey 4-1BB expressed on 300.19 pre-B cells (cynomolgus monkey, UniProt A9YYE7 24-254); assay: flow cytometry on transfected 300.19 pre-B cells
T5 construct: whole, on cells; also called cy4-1BB; Pre-B cy4-1BB

[6] = biological target: T6, human 4-1BB expressed on cells (300.19 pre-B cells, Jurkat NF-κB-luc2P cells, primary T-cells) (human, UniProt Q07011 24-255); assay: flow cytometry on transfected 300.19 pre-B cells
T6 construct: also called h4-1BB; Pre-B h4-1BB
T6 sequence (Q07011 24-255 limits assumed): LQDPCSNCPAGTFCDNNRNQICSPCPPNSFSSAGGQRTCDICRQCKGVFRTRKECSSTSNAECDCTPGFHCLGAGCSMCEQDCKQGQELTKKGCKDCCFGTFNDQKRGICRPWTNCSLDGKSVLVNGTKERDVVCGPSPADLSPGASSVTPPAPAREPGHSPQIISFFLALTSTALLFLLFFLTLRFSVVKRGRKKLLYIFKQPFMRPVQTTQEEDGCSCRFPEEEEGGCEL

[7] = biological target: T7, cynomolgus monkey PD-1 expressed on 300.19 pre-B cells (cynomolgus monkey, UniProt B0LAJ3 25-288); assay: flow cytometry on transfected 300.19 pre-B cells
T7 construct: also called cyPD-1; Pre-B cyPD-1
T7 sequence (B0LAJ3 entry or part of it limits assumed): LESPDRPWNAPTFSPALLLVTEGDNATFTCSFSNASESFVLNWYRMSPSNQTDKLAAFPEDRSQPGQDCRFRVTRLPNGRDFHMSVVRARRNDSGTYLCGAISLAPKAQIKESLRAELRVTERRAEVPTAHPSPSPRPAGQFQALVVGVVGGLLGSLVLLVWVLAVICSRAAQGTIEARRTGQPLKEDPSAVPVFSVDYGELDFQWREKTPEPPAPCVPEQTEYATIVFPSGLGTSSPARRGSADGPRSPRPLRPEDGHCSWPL

[8] = biological target: T4, human PD-1 expressed on cells (300.19 …); assay: flow cytometry on Jurkat reporter cells
[9] = biological target: T6, human 4-1BB expressed on cells (300.19 …); assay: flow cytometry on Jurkat reporter cells
[10] = biological target: T8, cynomolgus monkey PD-1 (SPR analyte) (cynomolgus monkey, UniProt B0LAJ3 25-170); assay: SPR, KD on cyPD-1 against KD on hPD-1
T8 construct: also called cyPD-1
T8 sequence (B0LAJ3 entry or part of it limits assumed): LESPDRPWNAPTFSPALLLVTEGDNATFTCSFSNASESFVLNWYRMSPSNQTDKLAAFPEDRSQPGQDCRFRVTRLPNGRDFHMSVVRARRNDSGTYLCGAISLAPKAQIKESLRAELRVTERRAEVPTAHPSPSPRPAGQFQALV

[11] = biological target: T8, cynomolgus monkey PD-1 (SPR analyte); assay: SPR (Biacore 8K), binder captured on anti-Fc chip, target as analyte, 1:1 model
human PD-1 (SPR analyte) [12] = biological target: T3, human PD-1 (SPR analyte); assay: as above; remark: listed apart in the source
[13] = biological target: T4, human PD-1 expressed on cells (300.19 …); assay: cell-based or functional assay
[14] = biological target: T6, human 4-1BB expressed on cells (300.19 …); assay: cell-based or functional assay
[15] = biological target: T2, human 4-1BB (SPR analyte); assay: SPR (Biacore 8K), binder captured on anti-Fc chip, target as analyte, 1:1 model; remark: listed apart in the source
[16] = biological target: T1, cynomolgus monkey 4-1BB (SPR analyte); assay: as above

B1: Construct #3 (anti-4-1BB/anti-PD-1 bispecific binding molecule) (bispecific antibody, IgG1)
heavy: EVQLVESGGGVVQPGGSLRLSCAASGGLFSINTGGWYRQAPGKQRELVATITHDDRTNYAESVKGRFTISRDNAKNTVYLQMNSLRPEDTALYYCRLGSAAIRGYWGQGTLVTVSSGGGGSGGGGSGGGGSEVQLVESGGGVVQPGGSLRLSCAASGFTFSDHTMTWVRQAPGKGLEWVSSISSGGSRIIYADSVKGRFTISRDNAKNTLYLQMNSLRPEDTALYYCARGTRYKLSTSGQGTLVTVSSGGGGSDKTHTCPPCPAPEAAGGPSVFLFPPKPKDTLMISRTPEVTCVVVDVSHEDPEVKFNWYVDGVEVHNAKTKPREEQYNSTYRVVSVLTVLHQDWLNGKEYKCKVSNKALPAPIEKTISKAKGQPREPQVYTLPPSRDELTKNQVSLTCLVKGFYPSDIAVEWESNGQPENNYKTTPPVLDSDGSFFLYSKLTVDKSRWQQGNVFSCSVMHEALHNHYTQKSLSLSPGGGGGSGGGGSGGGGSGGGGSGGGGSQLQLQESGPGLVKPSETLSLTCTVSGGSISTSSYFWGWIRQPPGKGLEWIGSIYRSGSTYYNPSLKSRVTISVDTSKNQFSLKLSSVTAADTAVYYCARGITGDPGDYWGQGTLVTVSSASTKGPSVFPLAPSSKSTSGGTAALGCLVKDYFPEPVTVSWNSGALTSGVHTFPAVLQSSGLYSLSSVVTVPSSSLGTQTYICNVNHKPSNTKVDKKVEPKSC
light: EIVLTQSPATLSLSPGERATLSCGASQSVSINFLAWYQQKPGLAPRLLIYEASSRATGIPDRFSGSGSGTDFTLTISRLEPEDFAVYYCQQYGSSPYTFGQGTKLEIKRTVAAPSVFIFPPSDEQLKSGTASVVCLLNNFYPREAKVQWKVDNALQSGNSQESVTEQDSKDSTYSLSSTLTLSKADYEKHKVYACEVTHQGLSSPVTKSFNRGEC
notes: also called Original Construct #3
**Q.** Which results are given for B1?
**A.** Ratio KD cyno/human [1]: 2.1 fold; Kd [2]: 7.82 nM; Kd (human PD-1 (SPR analyte) [3]): 16 nM; EC50 [4]: 3.69 nM; Emax [4]: 3750 MFI; EC50 [5]: 0.312 nM; EC50 [6]: 0.299 nM; EC50 [7]: 7.77 nM; Emax [7]: 13800 MFI; EC50 [8]: 12.3 nM; Emax [8]: 321 MFI; EC50 [9]: 0.191 nM; Ratio KD cyno/human [10]: 2.6 fold; Kd [11]: 18.2 nM; Kd (human PD-1 (SPR analyte) [12]): 7.05 nM; IC50 (nM) PD-1 reporter assay [13]: 6.7 nM; EC50 (nM) 4-1BB reporter assay [14]: 0.1 nM; Kd [15]: 11.8 nM; Kd [16]: 25.1 nM

Source: patent US20240262923A1 (Sanofi, published 2024)
